Test results as given in patent US20060135432A1, “Agonists and antagonists of conadotropin-releasing hormone-2, and use thereof” (priority 2002, published 2006).
[ ]: non-standard residue; d: D form. dPhe(4-Cl) = N[C@H](Cc1ccc(Cl)cc1)C(=O)O; d2Nal = N[C@H](Cc1ccc2ccccc2c1)C(=O)O; dCit = NC(=O)NCCC[C@@H](N)C(=O)O; d3Pal = N[C@H](Cc1cccnc1)C(=O)O

Experiments:
[1] = biological target: bfGnRHR-3 (bullfrog); experiment: displacement of I^125-GnRH-2 from membranes of GH3 cells expressing bfGnRHR-3; details: scale: log IC50
[2] = biological target: rat GnRHR (rat) (UniProt P30969); experiment: displacement of I^125-GnRH-2 from membranes of GH3 cells expressing rat GnRHR; details: scale: log IC50
[3] = biological target: bfGnRHR-3 (bullfrog); experiment: cell-based or functional assay; details: for Log IC50, inhibition of GnRH-2-induced inositol phosphate production in GH3 cells expressing the receptor: scale: log IC50
[4] = biological target: rat GnRHR (rat) (UniProt P30969); experiment: cell-based or functional assay; details: scale: log IC50

Chain of rat GnRHR (rat) (P30969 whole entry): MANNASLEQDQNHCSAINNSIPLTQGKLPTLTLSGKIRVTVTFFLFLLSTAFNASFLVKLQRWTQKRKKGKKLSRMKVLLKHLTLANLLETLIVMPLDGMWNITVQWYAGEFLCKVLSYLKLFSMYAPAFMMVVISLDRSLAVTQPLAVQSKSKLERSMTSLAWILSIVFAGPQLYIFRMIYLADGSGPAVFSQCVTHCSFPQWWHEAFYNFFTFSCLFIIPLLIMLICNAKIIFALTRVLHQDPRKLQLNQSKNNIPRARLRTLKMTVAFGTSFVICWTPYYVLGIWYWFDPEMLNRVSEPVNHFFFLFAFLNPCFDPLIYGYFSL

log IC50 [1] | log IC50 [2] | Log IC50, inhibition of GnRH-2-induced inositol phosphate production in GH3 cells expressing the receptor [3] | Log IC50, inhibition of GnRH-induced inositol phosphate production in GH3 cells expressing the receptor [4] | inhibition of GnRH-2-induced IP production, sensitivity compared with Cetrorelix (fold more sensitive than Cetrorelix) [3] | Binder
-7.11 | -12.6 | -6.28 | -11 |  | Ac-[d2Nal][dPhe(4-Cl)][d3Pal]SY[dCit]LRP[dA]-NH2 [Cetrorelix]
-11.7 | -11.8 | -8.49 | -9.27 | 1000 | Ac-[d2Nal][dPhe(4-Cl)][d3Pal]SY[dCit]WYP[dA]-NH2 [Trptorelix-1]
